# Measurements published in article PMC3940207 (Molecular cell, 2014).
# T1: Swr1_(504-650) (S. cerevisiae, UniProt Q05471 505-651)
# T1 sequence (looked up): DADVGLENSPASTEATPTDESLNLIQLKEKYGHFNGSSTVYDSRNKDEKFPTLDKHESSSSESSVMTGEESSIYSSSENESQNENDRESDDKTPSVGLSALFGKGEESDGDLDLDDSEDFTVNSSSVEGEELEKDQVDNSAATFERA
# B1: scH2B-H2A (other)
# chain: MRKETYSSYIYKVLKQTHPDTGISQKSMSILNSFVNDIFERIATEASKLAAYNKKSTISAREIQTAVRLILPGELAKHAVSEGTRAVTKYSSSTQAQSRSAKAGLTFPVGRVHRLLRRGNYAQRIGSGAPVYLTAVLEYLAAEILELAGNAARDNKKTRIIPRHLQLAIRNDDELNKLLGNVTIAQGGVLPNI
# Tests used:
# [1] = target: single chain H2B_(36-130) and H2A.Z_(22-118) chimera; experiment: AUC
# [2] = target: single chain H2B_(36-130) and H2A.Z_(22-118) chimera; experiment: ITC
# [3] = target: T1, Swr1_(504-650); experiment: ITC
molecule,measurement,setting,value
Swr1_(589-650) (from UniProt Q05471 590-651) (domain or fragment),stoichiometry N,[1],1
Swr1_(504-650) (from UniProt Q05471 505-651) (domain or fragment),Kd,[2],7 nM
B1,Kd,[3],~151 nM
